Measured values from article PMC4660055.
Numbering of substitutions follows the chain as printed.

Columns and labels:
[1] = target: PmrA (double-substitution W181G/I220D variant), BeF3^−-activated (Klebsiella pneumoniae); assay: crystal structure; BeF3^−-activated PmrA dimer mixed 1:1 with 25-bp or 26-bp pbgP promoter DNA in 20 mM Tris-HCl pH 8.0, 100 mM NaCl, 2.65 mM BeF3^−; three copies of the complex (complex-1, -2, -3) in two crystal forms
PmrA N188A = target: T1, PmrA N188A (Klebsiella pneumoniae, UniProt W9BNR5 1-223, N188A); assay: fluorescence polarization; BeF3-, Mg2+ (activation); FP: 10 mM sodium phosphate, 15 mM NaCl, pH 7.0, 298 K, 6 nM FAM-DNA; proteins activated with 5.3 mM BeCl2, 35 mM NaF, 7 mM MgCl2. NMR: 20 mM Tris-HCl, 100 mM Na
T1 sequence: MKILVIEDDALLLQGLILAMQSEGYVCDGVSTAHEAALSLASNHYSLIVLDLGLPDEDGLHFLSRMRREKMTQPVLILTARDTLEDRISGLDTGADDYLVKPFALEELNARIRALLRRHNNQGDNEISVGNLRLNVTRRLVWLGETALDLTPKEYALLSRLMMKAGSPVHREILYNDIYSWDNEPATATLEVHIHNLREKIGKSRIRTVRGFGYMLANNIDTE

PmrA N176A = target: T2, PmrA N176A (Klebsiella pneumoniae, UniProt W9BNR5 1-223, N176A); assay: as above
T2 sequence: T1 sequence with N176A, A188N

[2] = target: T3, PmrA (double-substitution variant) (Klebsiella pneumoniae, UniProt W9BNR5 1-223, W181G;I220D); assay: as above
T3 sequence: T1 sequence with W181G, A188N, I220D

PmrA R210A = target: T4, PmrA R210A (Klebsiella pneumoniae, UniProt W9BNR5 1-223, R210A); assay: as above
T4 sequence: T1 sequence with A188N, R210A

PmrA N196A = target: T5, PmrA N196A (Klebsiella pneumoniae, UniProt W9BNR5 1-223, N196A); assay: as above
T5 sequence: T1 sequence with A188N, N196A

WT-PmrA = target: T6, WT-PmrA (Klebsiella pneumoniae, UniProt W9BNR5 1-223); assay: as above
T6 sequence: T1 sequence with A188N

[3] = target: T3, PmrA (double-substitution variant); assay: X-ray crystallography (3.8 A); BeF3-, Mg2+; FP: 10 mM sodium phosphate, 15 mM NaCl, pH 7.0, 298 K, 6 nM FAM-DNA; proteins activated with 5.3 mM BeCl2, 35 mM NaF, 7 mM MgCl2. NMR: 20 mM Tris-HCl, 100 mM Na

Molecule: PmrA (double-substitution W181G/I220D variant), BeF3^−-activated (natural protein)
- stoichiometry N [1]: 2

B1: 25-bp FAM-labelled DNA (FP) (dsDNA)
DNA 1: ATTTCTTAATATTATCCTAAGCAAG
DNA 2: TTGCTTAGGATAATATTAAGAAATC
- Kd (PmrA N188A): 762 ± 12.3 nM
- Kd (PmrA N176A): 365 ± 11.6 nM
- Kd [2]: 201 ± 8.2 nM
- Kd (PmrA R210A): 3037 ± 11.7 nM
- Kd (PmrA N196A): 399 ± 10.9 nM
- Kd (WT-PmrA): 194 ± 7.7 nM

B2: 26-bp pmra box DNA (crystal) (dsDNA)
DNA 1: ATTTCTTAATATTATCCTAAGCAAGG
DNA 2: CTTGCTTAGGATAATATTAAGAAATC
- binding result [3]: binds
